Test results as given in patent US20200025774A1 (ENTEROME S A, published 2020).

biological target: T1, HLA-A*0201 molecule expressed on human T2 cells (human); experiment: T2 cell HLA-A*0201 stabilisation assay, flow cytometry; ratio of the peptide concentrations inducing 20% of HLA-A*0201 expression
T1 construct: also called HLA.A2.01
Experimental: T2 cells (2.10⁵ cells per well) were incubated with decreasing concentrations of peptides from 100 μM to 0.1 μM in a AIMV medium supplemented with 100 ng/μl of human β2m at 37° C. for 16 hours.
The analysis was performed by FACS (Guava Easy Cyte). […] The relative affinity is then determined as follows:

In vitro binding affinity (relative affinity against reference peptide HIV pol 589-597)	Binder
2.22	ILPFGFILA [peptide 1I9A]
3.06	ALPFGFILV [peptide 1A9V]
2.62	FLPFGFILM [peptide 1F9M]
